From the supplement of paper PMC10567573

B1: RHOBTB2 (parent)
chain: NQEITKAFHVRRTNRVKECLAKGT

Variants of: B1
Test: protein stability index of a GFP-peptide fusion (GPS, HEK-293T) (PSI 1-6); higher = more stable
Conditions: c terminus: a fixed tail appended
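Also: lentivirally expressed fusions sorted by FACS into six bins by GFP to DsRed ratio, PSI derived from sequencing read proportions per bin multiplied by bin number.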

Protein stability index: each site, then its substitutions
K22: E 3.87, N 3.18, W 2.06, I 2.58, P 3.04
N14: Q 3.09, W 2.15, H 3.43, F 2.15, S 2.48, G 3.17, A 4.05, V 2.83, Y 1.82, P 3.38, K 3.15
R11: D 4.01, V 2.22, P 4.36, N 4.05, Q 4.43, L 3.21, K 3.62, T 3.82, I 2.43, F 3.62
H9: N 4.24, W 2.5, V 2.4, F 2.55, I 3.08, C 2.65
A7: Y 2.29, V 1.02, R 3.76, M 2.48, C 2.94, H 2.52, T 3.11
V16: L 3.92, F 2.48, Y 1.97, M 2.8, E 3.45, R 3.21, Q 2.79, D 4.7
T5: P 3.88, W 3, Q 4.06, D 3.84, C 2.04, A 3.75
R12: K 4.31, E 4.16, A 4.05, L 2.16, G 4.51, P 3.5, I 2.37
C19: V 3.08, E 3.45, I 2.5, N 3.27, S 2.81, M 2.78, A 3.42, Y 2.33
V10: C 3.62, P 4.01, L 3.08, N 3.92, G 3.46, K 4.42, H 4.46, T 4.3, W 3.35
G23: H 2.84, K 4.17, L 2.56, I 2.61, E 3.64, V 1.75
E3: V 2.4, L 3.66, S 2.26, W 3.8, Y 2.23, N 3.38, M 2.87, F 2.04
A21: E 3.63, P 3.38, W 2.28, S 2.48, N 3.42, T 3.73
K17: R 2.47, S 3.63, G 2.74, T 3.15
N1: Y 2.26, E 4.01, P 4.54, W 2.45, V 3.07, A 4.01, I 1.59, T 1.57
K6: L 2.84, H 3.87, M 2.29, G 3.49, Y 2.25, P 4.09, E 4.03
E18: V 3.4, F 2.59, G 2.88, L 2.83, T 3.93, H 2.58, N 2.92, P 2.59
L20: Y 2.58, N 3.27, I 4.41, G 2.97, W 2.22, K 3.83
R15: G 2.9, P 3.29, S 3.54, N 3.48, A 3.66, D 4.21
T24: S 3.61, W 2.69, F 1.81, V 2.7, H 3.32
Q2: R 2.83, P 3.4, C 3.16, Y 3.31, W 2.69, A 3.21, M 3.01, L 2.4, T 3.74
T13: A 3.72, S 3.96, Q 3.93, M 3.57
F8: M 4.77, Q 4.48, S 4.87, V 4.46, P 4.53, I 4.37
I4: L 3.51, R 3.72, K 3.75, N 3.38, G 4.42, W 3.21, H 4.13
